Laboratory results as given in IntAct's records for PubMed 36577757.

Columns and labels:
mrtfa_human MRTFA [1] = biological target: mrtfa_human MRTFA (UniProt Q969V6)
mrtfa_human MRTFA [2] = biological target: mrtfa_human MRTFA (UniProt Q969V6); remark: listed apart in the source

Chain of UniProt Q969V6 (Q969V6 whole entry): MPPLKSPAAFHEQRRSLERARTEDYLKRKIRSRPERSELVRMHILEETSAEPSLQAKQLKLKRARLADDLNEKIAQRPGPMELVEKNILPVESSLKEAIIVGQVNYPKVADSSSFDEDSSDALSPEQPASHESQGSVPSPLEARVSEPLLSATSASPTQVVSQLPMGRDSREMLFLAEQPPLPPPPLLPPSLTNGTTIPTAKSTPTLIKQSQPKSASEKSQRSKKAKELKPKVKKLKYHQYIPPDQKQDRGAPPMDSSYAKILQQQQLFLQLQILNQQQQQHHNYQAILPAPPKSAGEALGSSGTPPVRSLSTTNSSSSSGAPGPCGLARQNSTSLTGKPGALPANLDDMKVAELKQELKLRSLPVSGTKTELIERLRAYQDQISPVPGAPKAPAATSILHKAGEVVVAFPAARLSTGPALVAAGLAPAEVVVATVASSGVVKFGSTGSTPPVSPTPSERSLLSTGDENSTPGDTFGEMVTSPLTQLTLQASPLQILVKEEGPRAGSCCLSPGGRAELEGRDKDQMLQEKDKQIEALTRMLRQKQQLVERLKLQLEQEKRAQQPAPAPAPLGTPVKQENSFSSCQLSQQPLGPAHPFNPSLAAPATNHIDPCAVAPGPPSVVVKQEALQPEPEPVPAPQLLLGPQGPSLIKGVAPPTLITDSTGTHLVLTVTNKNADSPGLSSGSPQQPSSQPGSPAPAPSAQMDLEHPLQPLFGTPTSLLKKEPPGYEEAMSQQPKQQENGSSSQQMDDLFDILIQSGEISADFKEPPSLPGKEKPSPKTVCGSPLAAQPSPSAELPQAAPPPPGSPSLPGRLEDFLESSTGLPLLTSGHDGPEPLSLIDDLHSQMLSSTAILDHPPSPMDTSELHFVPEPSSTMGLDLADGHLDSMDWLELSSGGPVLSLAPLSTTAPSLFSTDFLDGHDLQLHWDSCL

## Filamin-A (Homo sapiens), P21333 S2152A
mrtfa_human MRTFA [1]
  effect of a mutation on the interaction: decreasing interaction strength
mrtfa_human MRTFA [2]
  effect of a mutation on the interaction: disrupting interaction strength
